Assays:
[1] = biological target: T1, human MIP-1β (CCL4) (human, UniProt P13236 24-92); experiment: direct ELISA, chemokine coated at 10 ng/well, fusion at 1 µg/well
T1 construct: Bought recombinant chemokine; also called human CCL4
T1 sequence (looked up): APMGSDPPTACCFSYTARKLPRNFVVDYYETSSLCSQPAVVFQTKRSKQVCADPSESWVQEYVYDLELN
Protocol: (§1) The binding specificity of the murine CCR5-IgG soluble receptor to various commercially available human recombinant chemokines (R&D Systems, Minneapolis, N. Mex.) MIP-1α (CCL3), MIP-1β (CCL4) and RANTES as well as the murine recombinant chemokines (R&D Systems, Minneapolis, N. Mex.) MIP-1α (CCL3) and ITAC was determined by direct ELISA as follows: 96-well ELISA plates (Nunc, Roskilde, Denmark) were coated with 10 ng/well of human CCL3, CCL4, CCL5, as well as murine CCL3 or ITAC, and blocked with 1% BSA in PBS. Wells were washed and incubated with 1 μg/well CCR5(EC2)-IgG overnight. Wells were washed and the presence of CCR5(EC2)-IgG was detected with goat anti mouse IgG-HRP antibody (Jackson ImmunoResearch lot no. 58734). Results are shown as O.D. reading at 450 nm.

[2] = biological target: T2, human RANTES (CCL5) (human, UniProt P13501 24-91); experiment: as above
T2 construct: Bought recombinant chemokine; also called human CCL5
T2 sequence (looked up): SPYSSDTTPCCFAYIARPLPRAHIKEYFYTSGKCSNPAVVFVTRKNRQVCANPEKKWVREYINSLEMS
Protocol: as §1

[3] = biological target: T3, murine MIP-1α (CCL3) (murine, UniProt P10855 24-92); experiment: direct ELISA, chemokine coated at 10 ng/well, fusion at 10-1000 ng/ml
T3 construct: Bought recombinant chemokine; also called mCCL3; murine CCL3
T3 sequence (looked up): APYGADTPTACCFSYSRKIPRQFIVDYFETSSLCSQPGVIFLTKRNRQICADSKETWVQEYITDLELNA
Protocol: (§2) The binding specificity of the different extracellular domains (EC1, EC2, EC3 and N) of the murine CCR5-IgG fusion proteins to various commercially available murine recombinant […] chemokines (R&D Systems, Minneapolis, N. Mex. including MIP-1α (CCL3), (CCL4) and RANTES (CCL5) was determined by direct ELISA as follows: 96-well ELISA plates (Nunc, Roskilde, Denmark) were coated with 10 ng/well of murine CCL3, CCL4 or […] and blocked with 1% BSA in PBS. Wells were washed and incubated with 10 ng/ml, 100 ng/ml or 1000 ng/ml CCR5-IgG (EC1, EC2, EC3, N) at a concentration overnight. Wells were washed and the presence of CCR5-IgG was detected with goat anti mouse IgG-HRP (Jackson ImmunoResearch lot no. 58734). Results are shown as O.D. reading at 450 nm.

[4] = biological target: T4, murine MIP-1β (CCL4) (murine, UniProt P14097 24-92); experiment: as above
T4 construct: Bought recombinant chemokine; also called mCCL4; murine CCL4
T4 sequence (looked up): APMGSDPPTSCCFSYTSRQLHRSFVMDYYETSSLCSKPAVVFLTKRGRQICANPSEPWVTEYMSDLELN
Protocol: as §2

[5] = biological target: T5, murine RANTES (CCL5) (murine, UniProt P30882 24-91); experiment: as above
T5 construct: Bought recombinant chemokine; also called mCCL5; murine CCL5
T5 sequence (P30882 24-91 limits assumed): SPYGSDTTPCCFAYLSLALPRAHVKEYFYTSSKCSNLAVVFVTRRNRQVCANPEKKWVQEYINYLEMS
Protocol: as §2

Measured: binding result

B1: mCCR5(EC2)-IgG (Fc fusion)
chain: DAAQPARRARRTKLRSQKEGFHYTCSPHFPHTQYHFWKSFQTLKLEVPRDCGCKPCICTVPEVSSVFIFPPKPKDVLTITLTPKVTCVVVDISKDDPEVQFSWFVDDVEVHTAQTQPREEQFNSTFRSVSELPIMHQDCLNGKEFKCRVNSAAFPAPIEKTISKTKGRPKAPQVYTIPPPKEQMAKDKVSLTCMITDFFPEDITVEWQWNGQPAENYKNTQPIMDTDGSYFVYSKLNVQKSNWEAGNTFTCSVLHEGLHNHHTEKSLSHSPGKGPEQKLISEEDLNSAVDHHHHHH
notes: It may include the vector's Ig-kappa leader and tags; also called murine CCR5(EC2)-IgG; CCR5-Ig(E2)
binds: all assays above
